# Test results as given in the supplement of paper PMC12764529.
# ± gives the half width of the 95% confidence interval.
# Assay: folding stability dG unfold (combined trypsin and chymotrypsin); higher = more stable
# Experimental: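 Folding stability of de novo designed mini-proteins (<80 aa, no Cys; designed by TrROS, TrMRF, ProteinMPNN and the joint model) was measured by cDNA display proteolysis with trypsin and chymotrypsin. Each protease was used at 11 concentrations in a threefold dilution series plus a no-protease condition. K50 was inferred by Bayesian fitting of sequencing counts, and dG unfold was derived against a sequence-predicted unfolded-state K50 (Tsuboyama et al. method). Sequences shown include variable-length N-terminal GS-type padding (SAGGSAGG...) inside a display construct carrying a PA tag. Rows were kept only if the AF2 dimer inter-PAE was >15, to exclude likely homo-oligomers.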
row,Sequence,folding stability dG unfold [kcal/mol]
1,SAGGSAGGSAGGDPNIEKTYKIKVAKGDKNGKIIKVIEKEIKVKTPEEAEKFAKELAKSSAGGSAGGSAGGS [r10_57_TrMRF],< -1
2,SAGGSAGGSAGGAKELADRMRDAGYEPEADPDSGKIEVRHPNPNGKRMKREINIPPEDISAGGSAGGSAGGS [r10_1173_TrROS],< -1
3,SAGGSAGGSAGGIEVDPDYAMITFPIPPNETIKFKLPNEKLKIEVPPGKPISIYIPAKDSAGGSAGGSAGGS [r10_464_TrROS],< -1
4,SAGGSAGGGNTPRPRPRSVVTKLNVSPDTVPPEELKAKHPDIEVSYSPNSLTARVPVNGELVESSAGGSAGG [r6_739_JUSTAS],< -1
5,SAGGMIIDDPDALLDAIKENPNTPLVFLVPTDPATGTVDPAVIDAVVEPGFPVERDPDGYVRFIFPKSAGGS [r16_335_TrMRF],< -1
6,SAGGSAGGSAGGDADKALPVGFELVEAETVELGDNPVLLVRLKGKNGEQLLLVPPDAPISAGGSAGGSAGGS [r10_968_TrMRF],< -1
7,SAGGSAGGSAMSPSLPGKYEVLLTDPRPGVGPPVTRRVTLTPEEIEATIPPGAGREVVELPSAGGSAGGSAG [r3_223_JUSTAS],< -1
8,SAGGSAGGSHWAEELAKEAGLKVKIDDMMKNPDGYPYVIVKIKPPDGGKRTVMFDGNQPRIYPSAGGSAGGS [r12_279_TrROS],< -1
9,SAGGSAGGSVIRIPPDDLRANLKPGMMVMIKDPGKPRMFPWDDLDKLPPNDPVEIEIIPMEPGSAGGSAGGS [r12_501_TrROS],< -1
10,SAGGSAGGSAGGSSTVLETEVTPTSEPRLLTKTLIEEFPPDNPEKPVLSVKETVLPVLLSAGGSAGGSAGGS [r4_265_JUSTAS],< -1
11,SAGGSAGGSAGGFPNMPIKEIKIDNPERVPGKPRVRIEFTFPGGPRKFMMPADDLQDMFSAGGSAGGSAGGS [r10_771_TrROS],< -1
12,SAGGSAGGSAADLAKLEKVEVEEVPTDPNAEYRVTAELPTPGEPVEFTRRRLPDGSWEYSGSAGGSAGGSAG [r3_234_JUSTAS],< -1
13,SAGGSAGGSAGGMTAVVTEPRLENGKEYLVRTVREFPSAEPRPGAVLEEEVVPLDVPLESAGGSAGGSAGGS [r10_730_JUSTAS],< -1
14,SAGGSVRAVEVRLYRPEGDFPVIEIDVEAPASFPDDPELRERAARSVAGPLTRELLEELGLVPIGPSAGGSA [r2_306_TrMRF],-0.793 ± 0.52
15,SAGGSAGGSAGVKEIADKFPGIKSIDVQRNKNGEQTVSIEHRSKGGPVKHTFPAEDLEPLSAGGSAGGSAGG [r17_116_TrROS],< -1
16,SAGGSAGGSAGEKPIYYRIKHRNPANGQKVKHEIPFPPNDADEIKEQMEKQPGIDEIEPFSAGGSAGGSAGG [r17_438_TrROS],< -1
17,SSPPPSITVKSISREPATGTVTIPTSHPSGKHISVEWRSPDGTVTVVPPDKPTATLPAAPDWTLTKISVGSA [r9_113_JUSTAS],< -1
18,SAGGSAGGSAMTLLSEKEVPGTDLTIKYVEEKLPGERVIRTLTIKKNSVVEEKEFPVGELPSAGGSAGGSAG [r3_48_JUSTAS],< -1
19,SGSMVVVPESDLEAAIATARALVAAGEDTLLFFSPEAREAVQRAVPEVRVEPVPGVPPTPPRPESVARLRSA [r9_639_JUSTAS],< -1

row,Sequence,folding stability dG unfold [kcal/mol]
1,SAGGSAGGSPKPMKLRFRNPDNGMPFEVNVDKIDPDGQLRVEIEQPNGKTRKIDNIDNVEIEKSAGGSAGGS [r12_118_TrROS],< -1
2,SAGGSAGGSAGMTVEVKKLSTPRYEKIITITTETTVKDPNSAKPLTTETVTTIERDEVSLSAGGSAGGSAGG [r17_124_JUSTAS],< -1
3,SAGGSAGGSAGGSMITTEEFTDKEEAVEKAKKTPGVEKVEVKTTPSDKYVVIIYKPPLKSAGGSAGGSAGGS [r4_1_JUSTAS],< -1
4,SAGGSAGGSAGGGMKKITISDPVKPGAVITFPLTGETITVPANSSVTITLTEPLPGTYDLSAGGSAGGSAGG [r7_234_JUSTAS],< -1
5,SAGGMVVITTDDPDDLERLAEAVEELKRALAEAGATEPGVKVDVVIEKRPTPDGTLRYVAPVFVGLPSAGGS [r16_591_TrMRF],< -1
6,SAGGSAGGSAGGPTVKVKKVELAPETGYAVVHFEVELEGEPKVVEGELVLPLPPPLDAPSAGGSAGGSAGGS [r10_541_TrMRF],< -1
7,SPPYRATVEMEAPNGEPIGEEEFPIKPGKNLMFMMPAPARVRIEIEDPDEGEPREQEYDPRSGMLHFPLKSA [r9_272_TrROS],< -1
8,SAGGSAGGSAGGGSPAEQLREMAKQIPPVEIRFPGPGKERTIPDPDNFQEKGWKITEIEFSAGGSAGGSAGG [r7_504_TrROS],< -1
9,SAGDALKEAAKNGKPAELPIRFHFYQIKEPERDKDGGPRYKMKPIHTVEFPIRVDKVDPGNGDIKIDMPSAG [r5_5_TrROS],< -1
10,SAGGAMTPDGTSVTIPYEAKTPTGEASEEEARERIEEELAARPDVALTRVEFEREGDRIKATVYTRVPRSAG [r5_688_JUSTAS],< -1
11,SAGGSAGGMEKADKLAAALVEKGIPFHVKKVEVFEVRIPPADKELGEVVLPAVKIGLDDKVLLASAGGSAGG [r6_686_TrMRF],< -1
12,SASPLVPVETEVLEEETLPDGTLRILTRRTVGDTTILDVRDRGPGGEILRESSSVDTSSNTTTRDVSVLSAG [r14_189_JUSTAS],< -1
13,SAGGSAGGSGGLGGEPISVRTELVTVPVELEEEVLLPGGVPLPRRRTVERVVAVTTRVPPGAALSAGGSAGG [r6_526_JUSTAS],< -1
14,SAGGDNRQEREFHIPDPDGEDINITMEYNPSNGRTRVKVQPPEDGKPIKEIPADEMPPEAQDILKKISAGGS [r8_32_TrROS],< -1
15,GEVLVAKIELKVKKKLPEKPEEVEEKLELEFVAPIDNPEALEKAEEIAKKLAEEIGATEVKIKVEPYILPES [r1_346_TrMRF],< -1
16,SAGGGPPLRVSTESEVYEDPETGVTYVRRRIHVEGGLVVEEELKETVNPEDPGAEVTLVSRRESPALSAGGS [r8_241_JUSTAS],< -1
17,SAGGSAGGNWETIPIKGDPKQMVDEAREENPRNVRIYNPNNGKKHEFPPGLPLDDFPGMYVQRRSAGGSAGG [r6_858_TrROS],< -1
18,SAGGSAGGSAGPWKVITHTIDIPPGADELPIRLPGNGIEAKIMSVDPGNGTITVEIYVPDSAGGSAGGSAGG [r17_198_TrROS],< -1
19,SAGGSAGGSTAGEAESEEISVEPLPDGPYLVTRSVVRTLPDGSSEVTETVPSIATDPAEIAEASAGGSAGGS [r12_386_JUSTAS],< -1

row,Sequence,folding stability dG unfold [kcal/mol]
1,SAGGKITIEMPEDGMYRITIRNPNKGEPVSEIPIPANQIQELAKENGEPMPIEDIVRKLGYPIEIERYSAGG [r13_836_TrROS],< -1
2,SAGGSAGGSNIKDALDNFPPGYQTDVDPNSGTISVRFPDEGWEHQIEIPAEEGKVEINEWKPYSAGGSAGGS [r12_82_TrROS],< -1
3,SMTITLEKTLPDGSKVTITIPITKVPGKPLYKATVTVTTTKPGGTPSSKTYTFDFTSEEEAVEKAKEILASA [r9_337_JUSTAS],> 6
4,SAGGSAGGSAGKIEVETNPENNYMRVKITNPGNGKKIKIPVPNGNPSDARDKAKELILEFSAGGSAGGSAGG [r17_386_TrROS],< -1
5,SRFRISVQHDGKPIDRAEVQDAIHDLMQESGRPITFEELADELAERPNYSVSIERWNPPGKPKGTRTIRVSA [r9_1045_TrROS],< -1
6,SAGGSAGGSATIRPGEPIRIKIKYPNPDGKPQERTYNGNVPPGSTLEELADNFPGYKVEIEKSAGGSAGGSA [r18_279_TrROS],< -1
7,SMTIEELLKKHPNLSAEELAKLIADELKKKLPPGAKITVTVEEKDGKLVLKVEVEVNGKKITIELEIELKSA [r9_805_TrROS_Hall],> 6
8,SAGGSAGGSAGKTISLKELMKNGNPEKALEFLKKIKEANPKPKIKLIEIDENFDAKYDINSAGGSAGGSAGG [r11_365_TrMRF],< -1
9,SAGGSAGGSMEMETYPLNGFTVMVMRNPNDGRETVQIFMPDNGKPIQMPPEDLQQDPDLIDALSAGGSAGGS [r12_817_TrROS],< -1
10,SAGGSAGGSAGTVTEKTSIPDPNSDNSLTVTKTPNSITMTNPKTGDVIISNNSTVTKIKKSAGGSAGGSAGG [r17_544_JUSTAS],< -1
11,SAGGMKAKIIPFTVAGGAYEPETGELKKPVPVKVTLIEVEPEPDVKVEEIAEEFEKAFPGKGVIVAPSAGGS [r8_30_TrMRF],< -1
12,SAGGSAGGSAGWKISVRMPDNGKPRRVPIEIPFDADDPQYFKEIANDLANDGIREVEIYPSAGGSAGGSAGG [r11_196_TrROS],< -1
13,SAGGSAPIEIEVRLGDKPRTIDIEPNPEGMYPIKVYNDGPGKPKEHMIPPNNLDELKNLDPDRIEISAGGSA [r15_629_TrROS],< -1
14,SAGGSAGGSAGGYRIKIKMPNGRPREIPLEPDDPEEVKEQAKELSSRGYDVTKVEVEPPSAGGSAGGSAGGS [r10_231_TrROS],< -1
15,SAGGSAGGKPIVFKGKHDGKEMIFPIELNPENGQIKITPMNGKELRIPPNKPPKIVEVDPNDFESAGGSAGG [r6_174_TrROS],< -1
16,MKVLKTETKPIPGSGKIEVRVEYEVDGFFDPATGKPYSPDYLVTEKKTITVPPDSDDEIVTSSITFHPNLKS [r1_147_JUSTAS],< -1
17,SAGGIWIDNPDQILDQIKENPNQPRTIQVPMDPDNGQIPPDIKKALKEPGMPVQHDPNGYMTFKIPPSAGGS [r16_335_TrROS],< -1
18,SAGGSAGGSAGGMEVREVVEETPETLVVRTVRFYPDGSVEVLEEERIPLPPPELTPRNLLSAGGSAGGSAGG [r11_843_JUSTAS],< -1
19,SAGGSAGGMDEKLYITTAEVTVKEDGAPVPSTMTFKSKEEIEKYVKETFPPENVELKITTYPELSAGGSAGG [r6_114_JUSTAS],< -1
